These results are taken from US20200231630A1.

Where only a bound is given, the exact number is not on record here.

Experiment [1] addresses rsH14WIv1 monomeric HA1 head. The experiment is described as follows: BLI, Fab and monomeric HA head. (BLI is a label-free optical method that tracks binding on a fibre tip over time.)
Experiment [2] deals with rsH14WIv2 monomeric HA1 head. The experiment is described as follows: BLI, Fab and monomeric HA head.
The target of experiment [3] is rsH4NBv3 monomeric HA1 head. The experiment is described as follows: BLI, Fab on Ni-NTA sensor, monomeric HA head in solution.
The target of experiment [4] is rsH14WIv1 monomeric HA1 head. The description is as above.
The target in experiment [5] is rsH14WIv2 monomeric HA1 head. The experiment is described as above.
For experiment [6], the target named is H14N6 A/mallard/Wisconsin/10OS3941/2010 hemagglutinin, monomeric HA1 head (Influenza A virus H14N6 A/mallard/Wisconsin/10OS3941/2010). Described as above.
In experiment [7] the target is rsH4NBv1 monomeric HA1 head. The description is as above.
Experiment [8] deals with H1 A/Solomon Islands/3/2006 hemagglutinin, monomeric HA1 head (Influenza A virus H1N1 A/Solomon Islands/3/2006) (UniProt B4URD6). The description is as above.
Experiment [9] has as its target H4N6 A/America black duck/New Brunswick/00464/2010 hemagglutinin, monomeric HA1 head (Influenza A virus H4N6 A/America black duck/New Brunswick/00464/2010). The description is as above.

Usually Kd stands for the constant that tells how readily two partners part at equilibrium. The low end stands for tighter binding, the high end for weaker binding. The substance C05 Fab returned a fold KD greater than wildtype H1 SI-06 in experiment [1] of 1.3 fold. Further, the fold tighter binding than wildtype H1 SI-06 in experiment [2] was over 10 fold. For the same substance, the Kd in experiment [3] is 340 nM; in experiment [4], 1400 nM; in experiment [5], 65 nM; in experiment [6], over 100000 nM; in [7], over 100000 nM; in experiment [8], 1100 nM. The substance further yielded a dissociation constant (Kd) in [9] of over 100000 nM.

Substance CH67 Fab yielded a fold KD greater than wildtype H1 SI-06 in experiment [1] of 17 fold. For the same substance, the Kd in experiment [3] is 1600 nM; in [4], 9500 nM; in experiment [5], 310 nM; in [6] it was over 100000 nM; in [7], over 100000 nM; in experiment [8], 570 nM. Moreover, the Kd in [9] was over 100000 nM.
